Data reported in patent US20230365658A1.

Target: SARS-CoV-2 spike (S) glycoprotein, Omicron BA.4.6 (SARS-CoV-2), P0DTC2
Test: cell-based or functional assay

B1: mAb_v2130Vanderbilt_184_20220114_00112 (antibody, V domains shown)
VH: EVQLVESGGGLVKPGGSLRLSCAASGFTFRDVWMSWVRQAPGKGLEWVGRIKSKIDGGTTDYAAPVKGRFTISRDDSKNTLYLQMNSLKTEDTAVYYCTTAGSYYYDTVGPELPEGKFDYWGQGTLVTVSS
VL: not shown
- pseudoviral neutralization IC50: 1.26 mg/L
